Assay results published in the RNAGym collection of RNA variant scans (doi:10.7554/elife.90254).

B1: LINE1-full (parent)
chain: UACGUAGGUGGUUUUCCCCUGAUAGUGCUAAGGGGGCCUGGAAGUUUGGACUGGGCAGAGCUCAACACAGCGUGGCAAAGUGGCUGUGGCUAGACUGCCUCUCUGGAUUCCUCGUCACUCAGCAGGGCAUCUCUGAGAGAAAUGCC

Variants of: B1
Assay: self-cleavage, relative activity (ratio to wild type); higher = more cleavage; in vitro, sequencing; the parent is a self-cleaving ribozyme
U20C A57G gave a self-cleavage of 1.19.
With U26A A30G the self-cleavage was 0.84.
For G89A U115C, the self-cleavage was 0.04.
For U9C U115A, the self-cleavage was 1.55.
Variant U15A A142G has a self-cleavage of 1.13.
G72U A94G gave a self-cleavage of 0.46.
G36C U132C gave a self-cleavage of 1.27.
U46C A138G showed a self-cleavage of 1.29.
For G36A C38A, the self-cleavage was 1.18.
U109A C123U gave a self-cleavage of 1.34.
Variant C90U U104C has a self-cleavage of 0.04.
For A67U A124G, the self-cleavage was 0.02.
With G35A A117G the self-cleavage was 1.7.
Work on U73A U112G yielded a self-cleavage of 1.53.
U73A U112C gave a self-cleavage of 1.56.
Variant U52C G105A has a self-cleavage of 1.17.
Work on A117C A124G yielded a self-cleavage of 1.7.
Work on G36A U47C yielded a self-cleavage of 0.9.
C56U A59U gave a self-cleavage of 0.11.
For U13G A67U, the self-cleavage was 0.13.
G7U gave a self-cleavage of 1.35.
U91G C111U showed a self-cleavage of 0.02.
Work on G49A U73C yielded a self-cleavage of 2.51.
U23C U73A gave a self-cleavage of 1.28.
Work on C99U U119A yielded a self-cleavage of 0.79.
With G80C U96G the self-cleavage was 0.09.
For A65G U85A, the self-cleavage was 0.07.
In the case of G4A G70U, the self-cleavage is reported as 0.11.
With A22G G137A the self-cleavage was 1.52.
In the case of C66U A136G, the self-cleavage is reported as 0.04.
U29A A69G showed a self-cleavage of 0.42.
Variant U14C A117G has a self-cleavage of 1.22.
G60C U73C showed a self-cleavage of 0.04.
Work on U12C G32A yielded a self-cleavage of 1.54.
Work on A6G A24G yielded a self-cleavage of 1.21.
Work on U45C G106A yielded a self-cleavage of 2.
Work on U15A A24G yielded a self-cleavage of 0.49.
For U46C C61U, the self-cleavage was 0.04.
For U73C A77U, the self-cleavage was 1.31.
Variant C37U A59G has a self-cleavage of 0.07.
Work on U12C U115C yielded a self-cleavage of 1.21.
In the case of G11C U20C, the self-cleavage is reported as 1.53.
C123G A140U gave a self-cleavage of 1.27.
A136G G137A showed a self-cleavage of 2.12.
Work on G48A A129G yielded a self-cleavage of 1.54.
Variant G72A A121U has a self-cleavage of 1.52.
In the case of U108C A142G, the self-cleavage is reported as 1.94.
U47C A79G gave a self-cleavage of 1.39.
Variant A31C U45G has a self-cleavage of 0.
Variant U20C C76U has a self-cleavage of 2.18.
Variant C17U U23G has a self-cleavage of 1.11.
U115A A117U gave a self-cleavage of 1.82.
In the case of U46A A67G, the self-cleavage is reported as 0.22.
Work on U100A C133U yielded a self-cleavage of 0.54.
Work on U45C U96A yielded a self-cleavage of 0.07.
For C101A A142G, the self-cleavage was 1.53.
Variant A30G C145G has a self-cleavage of 0.47.
Variant U112A A136G has a self-cleavage of 1.71.
Work on U1A U112A yielded a self-cleavage of 1.2.
In the case of U39C C71U, the self-cleavage is reported as 0.31.
U26G C38U gave a self-cleavage of 0.91.
G11A A65G showed a self-cleavage of 0.02.
For G49U U108C, the self-cleavage was 1.5.
For C123U G125C, the self-cleavage was 1.1.
For A121G U132C, the self-cleavage was 1.58.
In the case of A24U U96A, the self-cleavage is reported as 0.07.
Variant G58A C71U has a self-cleavage of 0.03.
U12A A79G showed a self-cleavage of 1.13.
A30U U134C showed a self-cleavage of 1.22.
In the case of G54A A129U, the self-cleavage is reported as 0.4.
For A6U A24G, the self-cleavage was 1.13.
A79G U102G gave a self-cleavage of 0.49.
Variant U52C A94G has a self-cleavage of 0.24.
In the case of G114U, the self-cleavage is reported as 1.4.
For G72U A107C, the self-cleavage was 2.15.
U14A U96C gave a self-cleavage of 0.04.
For G4U A129G, the self-cleavage was 1.07.
With A69U A94U the self-cleavage was 0.05.
With U14A A142G the self-cleavage was 0.85.
For C19U A124G, the self-cleavage was 0.88.
Variant C95A A121U has a self-cleavage of 0.05.
Work on U12C U73C yielded a self-cleavage of 1.65.
In the case of U20A G33U, the self-cleavage is reported as 0.66.
With G40U U108C the self-cleavage was 1.59.
Variant C95U U104A has a self-cleavage of 0.1.
With U45G U87A the self-cleavage was 0.07.
In the case of G97A U132C, the self-cleavage is reported as 0.11.
For A30G C38U, the self-cleavage was 1.2.
Variant A94U U112A has a self-cleavage of 0.31.
Variant U12C U119G has a self-cleavage of 1.5.
In the case of G49C A59G, the self-cleavage is reported as 0.12.
A77G G127A showed a self-cleavage of 2.11.
Work on G58U A142G yielded a self-cleavage of 0.03.
Work on A64C yielded a self-cleavage of 0.35.
A59G A77C showed a self-cleavage of 0.33.
For U15C U130A, the self-cleavage was 1.
Work on U47A C99A yielded a self-cleavage of 0.48.
Variant G72U C116A has a self-cleavage of 1.23.
With C3U U130C the self-cleavage was 0.31.
In the case of U47C U52A, the self-cleavage is reported as 1.72.
Variant A65G A142C has a self-cleavage of 0.08.
A42G U45A showed a self-cleavage of 1.4.
U12C U81C showed a self-cleavage of 1.11.
Variant U5A U87A has a self-cleavage of 0.15.
With A24U C116A the self-cleavage was 1.7.
Work on A67U U102C yielded a self-cleavage of 0.1.
A59G U115A showed a self-cleavage of 0.11.
In the case of U9A U96A, the self-cleavage is reported as 0.08.
For U108C U119C, the self-cleavage was 2.
In the case of U102C A142U, the self-cleavage is reported as 1.26.
For U12C A42U, the self-cleavage was 1.
For A6U A92U, the self-cleavage was 0.47.
Variant U12G A50G has a self-cleavage of 1.2.
For G34A U96G, the self-cleavage was 0.09.
In the case of G34A U96C, the self-cleavage is reported as 0.05.
For A65U G127A, the self-cleavage was 0.68.
Variant A57U A107G has a self-cleavage of 0.14.
In the case of U1C A24U, the self-cleavage is reported as 1.2.
With U62A U102A the self-cleavage was 0.01.
Work on C17G U143C yielded a self-cleavage of 1.09.
In the case of U45A A77U, the self-cleavage is reported as 1.56.
With U14A U102A the self-cleavage was 0.99.
G25A A79G showed a self-cleavage of 0.91.
Work on G4U U45A yielded a self-cleavage of 1.04.
In the case of U46G A117G, the self-cleavage is reported as 2.26.
Variant U119C A124G has a self-cleavage of 1.62.
Work on U108C U109C yielded a self-cleavage of 1.51.
Work on A42G U104G yielded a self-cleavage of 0.8.
A50C A107G showed a self-cleavage of 1.53.
In the case of A2G G105A, the self-cleavage is reported as 1.27.
With U12C A140U the self-cleavage was 1.24.
Work on U87A A129G yielded a self-cleavage of 0.11.
G114A G127C showed a self-cleavage of 1.34.
Work on U9A U13A yielded a self-cleavage of 1.12.
U9A U13C gave a self-cleavage of 0.81.
With C63A A124U the self-cleavage was 0.03.
Work on U46A U73A yielded a self-cleavage of 1.35.
U52C G54A showed a self-cleavage of 0.74.
In the case of A69C G93A, the self-cleavage is reported as 0.01.
Variant G125C U134C has a self-cleavage of 1.58.
For U15C A138C, the self-cleavage was 1.59.
Variant A67G C99U has a self-cleavage of 0.27.
In the case of A6U U9C, the self-cleavage is reported as 0.36.
U13A A64G gave a self-cleavage of 0.12.
Work on U29C U109C yielded a self-cleavage of 0.91.
For G53A A64G, the self-cleavage was 0.12.
In the case of U96C A107G, the self-cleavage is reported as 0.14.
In the case of U15A A121G, the self-cleavage is reported as 1.15.
Work on C19U C116U yielded a self-cleavage of 0.9.
U96C C146A gave a self-cleavage of 0.25.
Work on U47G A124G yielded a self-cleavage of 0.56.
Work on U85G A141G yielded a self-cleavage of 0.1.
A121C A136G showed a self-cleavage of 1.72.
In the case of A94G A138C, the self-cleavage is reported as 0.22.
A67U U108A gave a self-cleavage of 0.16.
Variant C51U A142U has a self-cleavage of 0.87.
A43G G122A showed a self-cleavage of 0.19.
A65C U143C gave a self-cleavage of 0.06.
G137C A138G gave a self-cleavage of 1.26.
Work on A30G C103A yielded a self-cleavage of 0.85.
A22G C63A showed a self-cleavage of 0.05.
For A30G U109A, the self-cleavage was 1.38.
With U23C G126A the self-cleavage was 1.18.
In the case of U109C C123U, the self-cleavage is reported as 1.22.
Variant U46A A140U has a self-cleavage of 1.12.
With G21U A94U the self-cleavage was 0.39.
Variant C16U A140G has a self-cleavage of 0.99.
